# ± gives the standard deviation of the averaged measurements.
# Test system: Saccharomyces cerevisiae
# Assay: protein stability index of tFT-peptide fusion (C-terminal peptide) (PSI (0-1 scale)); higher = more stable (slower turnover)
# Settings: genetic background: wild type; temperature: 30 C
# Procedure: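 Multiplexed protein stability (MPS) profiling in S. cerevisiae. Random 12-aa peptides (tFT-X12 library) are fused to the C-terminus of a sfGFP-mCherry tandem fluorescent timer, after mCherry and a GGGS linker. Cells are FACS-sorted into 8 mCherry/sfGFP bins and deep-sequenced. The protein stability index (PSI) is the read-weighted bin average, scaled from 0 (unstable) to 1 (stable). Only peptides with >10 reads are reported; cells were grown at 30 °C in SC-His with glucose.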
# 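Note: PSI is a weighted mean of sequencing reads over stability bins, variants kept only with over 10 reads, mCherry proximal and sfGFP distal, peptide attached via GGGS linker.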
row,Sequence,protein stability index
1,PQPLYAPFPPPL,0.789 ± 0.096
2,SSHHGSSEDDHQ,0.6597 ± 0.001
3,VWSWGDGGGAVV,0.734 ± 0.029
4,EGGGWGRYDGFG,0.69378 ± 9.6e-05
5,PRAPPLPPSPSP,0.668 ± 0.011
6,LSGLLGGGAGTL,0.678 ± 0.013
7,TDSRPKVGKRGN,0.6583 ± 0.0025
8,PLPLPPPPPLPL,0.657 ± 0.041
9,RGAGYQLFGPPR,0.698 ± 0.037
10,MYSSIFTHVFGV,0.734 ± 0.024
11,PRPAPLPAPPPS,0.679 ± 0.029
12,MSIDQPLLGTGV,0.638 ± 0.034
13,AGLVPSSLQSVS,0.695 ± 0.019
14,AANRCSVLPLGF,0.601 ± 0.041
15,PTKKRQHSDRRK,0.644 ± 0.013
16,NTCKMRTRNIKA,0.635 ± 0.0068
17,VVRLTALTNATV,0.671 ± 0.086
18,GIPPVLFAPPPL,0.696 ± 0.022
19,VFQFVLGVILGW,0.5289 ± 0.0035
20,KKRRTCPNRRDK,0.554 ± 0.036
21,ECGAGRVYGDPW,0.652 ± 0.063
22,KKKKKKKKEKKK,0.726 ± 0.041
23,EARRGTAGGQKK,0.626 ± 0.039
24,GKRGRDYIKVRE,0.6448 ± 0.006
25,REKEKGYLNKKK,0.743 ± 0.041

row,Sequence,protein stability index
1,PPPPPPRPFPPP,0.66 ± 0.085
2,GGCEGIRAVGWV,0.716 ± 0.04
3,TSGHSCGRGLLD,0.64 ± 0.012
4,GLVWLGFWCYPL,0.55646 ± 6.9e-05
5,KKTLIQKEQIRR,0.644 ± 0.022
6,LTVLPAVNCFPV,0.681 ± 0.021
7,PSETPSPLTLCS,0.722 ± 0.037
8,LDTRTLGVLTVG,0.633 ± 0.025
9,ETSRTYGNFPIT,0.774 ± 0.11
10,PPPPRPPHLSPP,0.7006 ± 0.0067
11,GMWFRIGHCRFA,0.684 ± 0.058
12,SLFPPPLLLSAS,0.574 ± 0.0095
13,GSQHSPRPFFFQ,0.72 ± 0.038
14,EQSERINKKARK,0.67 ± 0.063
15,MSLSYYFSPVYS,0.625 ± 0.044
16,LALWNGVSMEEE,0.654 ± 0.039
17,SAFLPPLSPFSP,0.753 ± 0.037
18,PPLSCSPPLAPL,0.695 ± 0.019
19,RYLLCSSVESAV,0.639 ± 0.028
20,VPLRPFFPTLFP,0.712 ± 0.063
21,AAQHNSLRGGPP,0.731 ± 0.036
22,ITLSLGRQQIEL,0.654 ± 0.013
23,HYRLPLPPASPA,0.701 ± 0.052
24,SLSDYKAYSKTI,0.65 ± 0.013
25,CSSVGGYGGFEV,0.616 ± 0.013

row,Sequence,protein stability index
1,RMRRAHCQQSGG,0.6537 ± 0.0037
2,SRLSPPFPLFSL,0.505 ± 0.036
3,LTTPTIAKTREN,0.691 ± 0.016
4,PSPHRFPAPTLP,0.687 ± 0.039
5,GKVCVLKLSPWI,0.814 ± 0.16
6,LLVLHVFPLASH,0.553 ± 0.035
7,GSVLPPPSSPPL,0.704 ± 0.013
8,RNKHREEIERQT,0.672 ± 0.031
9,RPGSWINEITKE,0.69944 ± 0.00024
10,WFPPLPPPPPPS,0.734 ± 0.028
11,HTDSKVVILFVP,0.592 ± 0.014
12,PTHCWSGLSGKG,0.703 ± 0.016
13,QRGKKKKDKSLV,0.6424 ± 0.0025
14,PLPPPLLPPSSS,0.7302 ± 0.0013
15,RHIDSRDPTDSP,0.651 ± 0.081
16,SNHIAPAFKIKQ,0.678 ± 0.0085
17,VGWGGGVEEVKG,0.712 ± 0.017
18,SLLLPTPPPFRP,0.644 ± 0.028
19,YLPKLSTYRLLR,0.654 ± 0.032
20,SCCTITVPERPR,0.653 ± 0.045
21,ACVGGGGMKVLG,0.713 ± 0.065
22,IVGGDSVSALRG,0.643 ± 0.022
23,LSIIRSPDWVDC,0.639 ± 0.059
24,PRPPYTPSPPHQ,0.774 ± 0.016
25,TDHTNCARDLGA,0.664 ± 0.054

row,Sequence,protein stability index
1,SPSSPPPPPPPA,0.833 ± 0.033
2,SPIVLTYHYLCR,0.666 ± 0.0087
3,TTSRADKEPFRL,0.675 ± 0.027
4,PRPRSPLSPLAL,0.676 ± 0.031
5,GVGVWVVLGRAG,0.644 ± 0.031
6,AVGCLGKSRATL,0.662 ± 0.0088
7,LFQKRAIGGAWL,0.742 ± 0.039
8,VHGRAPTSRSGT,0.72 ± 0.043
9,DCLRQTVPEGAM,0.723 ± 0.069
10,VSFCDVEVRFFV,0.619 ± 0.066
11,ISSRSMGGCWHA,0.673 ± 0.023
12,SLKRRWPYPNRP,0.681 ± 0.011
13,TEKRMIINIKIK,0.735 ± 0.03
14,HLPGFAVVFPFP,0.717 ± 0.032
15,GLGLASSGWGRG,0.733 ± 0.018
16,VPGWRVGGARSV,0.746 ± 0.048
17,GGGGSAGAGGGG,0.6221 ± 0.0061
18,PPLSPLSPLAPP,0.712 ± 0.038
19,GYTRYYRLLQSR,0.642 ± 0.028
20,SSCRHYRSPINH,0.764 ± 0.069
21,GYCLGVGLRLLH,0.562 ± 0.018
22,VLSAPPGLLSYT,0.623 ± 0.053
23,AGGLCLGGVGLG,0.674 ± 0.079
24,LSSSTHNLDFLQ,0.698 ± 0.041
25,VGVSGEGFSWGG,0.674 ± 0.019

row,Sequence,protein stability index
1,GVARSMAGWARC,0.703 ± 0.035
2,LWGVGAGPEDVG,0.68 ± 0.014
3,FWGVAPSDRVSK,0.697 ± 0.0078
4,NVMVRIGKGGVD,0.6664 ± 0.0041
5,LTFILGPPRMWL,0.669 ± 0.018
6,DTDDARGVWGSV,0.7151 ± 0.0058
7,SVGLPPPPPFPP,0.629 ± 0.017
8,AECMLGLFSGVL,0.73 ± 0.033
9,NRSMFSSQNDNA,0.671 ± 0.066
10,VVWEGSEFVSLA,0.671 ± 0.039
11,LLCLKIGASWSK,0.674 ± 0.028
12,ALLPLPPSPSLL,0.719 ± 0.0097
13,CLWRGDEGRVPW,0.7139 ± 0.0026
14,PRPAPGGSPALT,0.689 ± 0.083
15,VAVRGGSGDWGR,0.713 ± 0.023
16,YKVKADRVRHRR,0.692 ± 0.013
17,ACGLVSTSWYGA,0.713 ± 0.086
18,TISHYSLAPTQI,0.695 ± 0.02
19,LGMMIPQILDFV,0.586 ± 0.014
20,LSRFPSPPPLSH,0.701 ± 0.024
21,VRFVVRVFQCSF,0.466 ± 0.052
22,VVGRCVWRGMGG,0.688 ± 0.031
23,GGCQCFSFPWPP,0.712 ± 0.087
24,PPTPLAASPRPS,0.722 ± 0.12
25,SLPPSSPLPPVS,0.665 ± 0.035

row,Sequence,protein stability index
1,WGHFVGVWGRAG,0.664 ± 0.075
2,PLRGPPPPPLPI,0.677 ± 0.07
3,RCVRLSISILRP,0.586 ± 0.038
4,DERSWLPLFFST,0.695 ± 0.035
5,PPSPPPPAPPRA,0.713 ± 0.023
6,EGPPYSRYKGGS,0.645 ± 0.11
7,MKEKTNLETKDT,0.691 ± 0.013
8,SMWKQIRVYGLW,0.636 ± 0.028
9,GIQSGGGGGKGG,0.668 ± 0.015
10,PLPPFPPHNLRA,0.733 ± 0.082
11,SCSLPCPRLPSD,0.719 ± 0.15
12,VSGDRFKRHESV,0.695 ± 0.027
13,KAKCRNRQDEVI,0.742 ± 0.026
14,VGEGSGEWKFLD,0.809 ± 0.06
15,SILQINRDNVMR,0.742 ± 0.02
16,LFVHTPCPFEVR,0.673 ± 0.023
17,YGGRGFKGYYGG,0.776 ± 0.02
18,CFVSSSRFLSSF,0.692 ± 0.065
19,SCVFPSSCFVLI,0.607 ± 0.019
20,GERKRQQRKREE,0.707 ± 0.064
21,GTLGRMVTPAAW,0.6358 ± 0.0039
22,THSQPPQYSRVP,0.638 ± 0.071
23,NNMFFTREYEKL,0.674 ± 0.013
24,EGGESRGKGYRS,0.691 ± 0.025
25,KNKKYKNKQKQR,0.714 ± 0.094

row,Sequence,protein stability index
1,IKTVSDFLIVKL,0.6998 ± 0.0055
2,NKSTAEVKMEIR,0.686 ± 0.064
3,SLRWVHVRGVLQ,0.702 ± 0.013
4,WSSVSGEFRSLW,0.707 ± 0.035
5,VITGGFVVGCCG,0.623 ± 0.018
6,PTVPYRLVLSTV,0.511 ± 0.056
7,PPPHRPWSPVPP,0.7158 ± 0.0034
8,EEGAGLLWSAVG,0.641 ± 0.014
9,VLGRLRVGRDRV,0.7521 ± 0.0019
10,PPPPSPRLSHSP,0.646 ± 0.018
11,VFLRVLLECLDF,0.5666 ± 0.0036
12,ACLWRLSWVLGK,0.641 ± 0.037
13,LPGTVELHSSRL,0.755 ± 0.022
14,KVWQISEVGAGY,0.617 ± 0.024
15,YFESKWKYAGVR,0.699 ± 0.0074
16,GESGGGAVGGGW,0.64 ± 0.039
17,RVLASVGCYLFW,0.641 ± 0.015
18,QGEKDFRMGSIK,0.632 ± 0.015
19,LRAPFGWVKRFL,0.663 ± 0.069
20,GGLSGSRCTLFW,0.7342 ± 0.0069
21,SCVGCLYMYWSL,0.6102 ± 0.0049
22,KKKKKPKKQNSG,0.6592 ± 0.0047
23,LLRLLYVGVVGR,0.573 ± 0.027
24,VHRRRVSVGGGG,0.69 ± 0.0092
25,EPMHTLKSIITH,0.635 ± 0.073

row,Sequence,protein stability index
1,HMLSGRSFVRGD,0.69 ± 0.038
2,APPFRYLNSVSC,0.66 ± 0.034
3,PPPPPPLPPSPL,0.634 ± 0.1
4,IGIIFTKCGGRT,0.688 ± 0.037
5,TLRVNAMFVEAM,0.63 ± 0.014
6,SVGKRRGVGVWN,0.7007 ± 0.0031
7,PSPSRAPPMAPS,0.6982 ± 0.0013
8,GWWVVTLRSGLR,0.651 ± 0.09
9,NKKKKQRMKRNG,0.719 ± 0.12
10,CYPFSGLWPPPP,0.717 ± 0.018
11,VLHGGKLFGFVR,0.676 ± 0.017
12,NNMSFLPMLDYT,0.65 ± 0.042
13,IQDVGLKRLARV,0.675 ± 0.061
14,GRPSSMCTGWKV,0.74 ± 0.054
15,RDLVEQTLHIEY,0.667 ± 0.013
16,GVGMWCSRLRVG,0.5952 ± 0.00044
17,YLSFYRLLDSST,0.664 ± 0.007
18,PARRPPLPRLFL,0.665 ± 0.032
19,SSDLSNVQTQRL,0.708 ± 0.065
20,NFPPTPECSFVS,0.643 ± 0.0086
21,RGKVVRLLLERM,0.72 ± 0.067
